Where a chain is given by its changes, count along the chain named. Where two headings read alike, the source gives them in different places.

This note sets out measurements from patent publication US20230374153A1 (PARADIGM IMMUNOTERAPEUTICS, published 2023).

Test [1] addresses SARS-CoV-2 Omicron BA.5 (live virus; spike protein) (SARS-CoV-2, UniProt P0DTC2 14-1273). The test can be described thus: cell-based or functional assay.
In test [2] the target is T1, SARS-CoV-2 Spike Trimer, His Tag B.1.1.529/Omicron (ACRO Biosystems Cat. No. SPN-052Hz) (SARS-CoV-2, UniProt P0DTC2 16-1213).
Test [3] deals with T1, SARS-CoV-2 Spike Trimer, His Tag …. The source holds these as a separate data set.
For test [4] the target is unchanged. In words: SPR (Biacore T200, ACRO Biosystems), 1:1 model. On the technique in general: In SPR one partner is held on a chip, and binding of the other changes the refractive index at the surface.
The target in test [5] is T2, SARS-CoV-2 Delta variant B.1.617.2, RBD only (SARS-CoV-2, UniProt P0DTC2 319-537).
T2 construct: domain: RBD; also called RBD of the Delta B.1.617.2 variant
In words: SPR (Biacore T200, ACRO Biosystems), 1:1 model.

The target of test [6] is T3, SARS-CoV-2 (COVID-19) S protein RBD, His Tag B.1.1.529/Omicron (ACRO Biosystems Cat. No. SPD-052H3) (SARS-CoV-2, UniProt P0DTC2 319-537).
T3 construct: domain: RBD; also called Omicron RBD only; Omicron variant RBD
The test can be described thus: SPR (Biacore T200, ACRO Biosystems), 1:1 model.

Test [7] has as its target SARS-CoV-2 Omicron BA4.6 spike protein trimer (SARS-CoV-2, UniProt P0DTC2 16-1213). In words: SPR (Biacore 8K, ACRO Biosystems), 1:1 model.
The target of test [8] is SARS-CoV-2 Omicron XBB.1 spike protein trimer (SARS-CoV-2, UniProt P0DTC2 16-1213). The test can be described thus: SPR (Biacore 8K, ACRO Biosystems), 1:1 model.
In test [9] the target is SARS-CoV-2 Omicron BQ.1.1 spike protein trimer (SARS-CoV-2, UniProt P0DTC2 16-1213). In words: SPR (Biacore 8K, ACRO Biosystems), 1:1 model.
Test [10] deals with T1, SARS-CoV-2 Spike Trimer, His Tag …. The source holds these as a separate data set.
Test [11] deals with SARS-CoV-2 Omicron BA.5 spike protein trimer (SARS-CoV-2, UniProt P0DTC2 16-1213). In words: SPR (Biacore T200, ACRO Biosystems), 1:1 model.
In test [12] the target is T4, SARS-CoV-2 Omicron BA.2.75 spike protein trimer (SARS-CoV-2, UniProt P0DTC2 16-1213).
T4 construct: also called Omicron subvariant BA2.75 spike trimer
In words: SPR (Biacore T200, ACRO Biosystems), 1:1 model.

B1: ACE2 LVE IgG Fc STR chimeric antibody (LiVE) (Fc fusion)
chain: QSTIEEQAKLFLDKFNVEAEDLFYQSSLASWNYNTNITEENVQNMNNAGDKWSAFLKEQSTLAQMYPLQEIQELTVKLQLQALQQNGSSVLSEDKSKRLNTILNTMSTIYSTGKVCNPDNPQECLLLEPGLNEIMANSLDYNERLWAWESWRSEVGKQLRPLYEEYVVLKNEMARANHYEDYGDYWRGDYEVNGVDGYDYSRGQLIEDVEHTFEEIKPLYEHLHAYVRAKLMNAYPSYISPIGCLPAHLLGDMWGRFWTNLYSLTVPFGQKPNIDVTDAMVDQAWDAQRIFKEAEKFFVSVGLPNMTQGFWENSMLTDPGNVQKAVCHPTAWDLGKGDFRILMCTKVTMDDFLTAHHEMGHIQYDMAYAAQPFLLRNGANEGFHEAVGEIMSLSAATPKHLKSIGLLSPDFQEDNETEINFLLKQALTIVGTLPFTYMLEKWRWMVFKGEIPKDQWMKKWWEMKREIVGVVEPVPHDETYCDPASLFHVSNDYSFIRYYTRTLYQFQFQEALCQAAKHEGPLHKCDISNSTEAGQKLFNMLRLGKSEPWTLALENVVGAKNMNVRPLLNYFEPLFTWLKDQNKNSFVGWSTDWSPYADQSIKVRISLKSALGDKAYEWNDNEMYLFRSSVAYAMRQYFLKVKNQMILFGEEDVRVANLKPRISFNFFVTAPKNVSDIIPRTEVEKAIRMSRSRINDAFRLNDNSLEFLGIQPTLGPPNQPPVSGGGGSGGGGSDKTHTCPPCPAPESTRGPSVFLFPPKPKDTLMISRTPEVTCVVVDVSHEDPEVKFNWYVDGVEVHNAKTKPREEQYNSTYRVVSVLTVLHQDWLNGKEYKCKVSNKALPAPIEKTISKAKGQPREPQVYTLPPSRDELTKNQVSLTCLVKGFYPSDIAVEWESNGQPENNYKTTPPVLDSDGSFFLYSKLTVDKSRWQQGNVFSCSVMHEALHNHYTQKSLSLSPGK
B1: the “IC50 of inhibition of viral replication (human airway organoids)” value in test [1] worked out at 29.9 ng/mL. Also, the Kd in [2] was found to be 0.144 nM; in test [3], 0.114 nM; in test [4] it was 0.144 nM; in test [5], 0.554 nM; in test [6], 0.308 nM. Also, the koff in [2] was determined as 0.000153 s⁻¹. Also, the kon in [2] came out at 1.06e+06 M⁻¹ s⁻¹.

B2: ACE2 LVE IgG Fc STR YTE chimeric antibody (LiVE Longer) (Fc fusion)
chain: B1 chain with M765Y, S767T, T769E
Regarding B2, in test [1], the “IC50 of inhibition of viral replication (human airway organoids)” value amounted to 26.9 ng/mL. Moreover, the Kd was 0.0734 nM in test [3]; 0.845 nM in [7]; 0.215 nM in test [8]; 1.81 pM in [9]; 5.43 pM in test [11]; 0.073 nM in [4]. Besides, the Kd in test [12] was 0.133 pM; in [6], 0.402 nM. Further, the dissociation rate constant (koff) in test [10] came out at 0.000117 s⁻¹. For the same molecule, the kon in test [10] came to 1.59e+06 M⁻¹ s⁻¹.

Broadly, the Kd is the equilibrium constant for the complex coming apart. A lower Kd goes with higher affinity. Broadly, the koff is the first-order rate constant of dissociation. As a reminder, the kon is the rate constant with which the complex forms. The low end stands for slow association, the high end for fast association.
